± gives the standard deviation of the averaged measurements.
Legend:
MCF7 = experiment: percentage of EdU-negative (G0-arrested) nuclei per well, 72 h; higher = more G0 arrest; conditions: reference: sequence is the full UniProt precursor, the tested protein was the secreted form or ectodomain
hTERT-HMEC = experiment: as above; conditions: reference: sequence is the full UniProt precursor, the tested protein was the secreted form or ectodomain
[1] = protein concentration 0.0065 µM
[2] = protein concentration 0.0225 µM
[3] = protein concentration 0.0075 µM
[4] = protein concentration 0.0219975 µM
[5] = protein concentration 0.219975 µM
[6] = protein concentration 0.0357143 µM
[7] = protein concentration 0.357143 µM
[8] = protein concentration 0.024875 µM
[9] = protein concentration 0.24875 µM
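Also: secreted proteins added to cultured cells, EdU pulse at the end, nuclei found by Hoechst imaging, EdU status from nuclear versus surrounding ring intensity ratio, PBS as neutral control.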

Sequence | percentage of EdU-negative (MCF7; [2]) | percentage of EdU-negative (MCF7; protein concentration 0.225 µM) | percentage of EdU-negative (hTERT-HMEC; [2]) | percentage of EdU-negative (hTERT-HMEC; protein concentration 0.225 µM) | also measured
MAVVPLLLLGGLWSAVGASSLGVVTCGSVVKLLNTRHNVRLHSHDVRYGSGSGQQSVTGVTSVDDSNSYWRIRGKSATVCERGTPIKCGQPIRLTHVNTGRNLHSHHFTSPLSGNQEVSAFGEEGEGDYLDDWTVLCNGPYWVRDGEVRFKHSSTEVLLSVTGEQYGRPISGQKEVHGMAQPSQNNYWKAMEGIFMKPSELLKAEAHHAEL |  |  |  |  | percentage of EdU-negative (MCF7; [1]): 24.7 ± 0.39%; percentage of EdU-negative (MCF7; protein concentration 0.065 µM): 25.8 ± 1.1%; percentage of EdU-negative (hTERT-HMEC; [1]): 5.43 ± 0.74%; percentage of EdU-negative (hTERT-HMEC; protein concentration 0.065 µM): 7.72 ± 0.45%
MAWASRLGLLLALLLPVVGASTPGTVVRLNKAALSYVSEIGKAPLQRALQVTVPHFLDWSGEALQPTRIRILNVHVPRLHLKFIAGFGVRLLAAANFTFKVFRAPEPLELTLPVELLADTRVTQSSIRTPVVSISACSLFSGHANEFDGSNSTSHALLVLVQKHIKAVLSNKLCLSISNLVQGVNVHLGTLIGLNPVGPESQIRYSMVSVPTVTSDYISLEVNAVLFLLGKPIILPTDATPFVLPRHVGTEGSMATVGLSQQLFDSALLLLQKAGALNLDITGQLRSDDNLLNTSALGRLIPEVARQFPEPMPVVLKVRLGATPVAMLHTNNATLRLQPFVEVLATASNSAFQSLFSLDVVVNLRLQLSVSKVKLQGTTSVLGDVQLTVASSNVGFIDTDQVRTLMGTVFEKPLLDHLNALLAMGIALPGVVNLHYVAPEIFVYEGYVVISSGLFYQS [Q8N4F0] | 25.8 ± 3.4% | 34.57 ± 0.04% | 5.06 ± 0.73% | 15.4 ± 0.54% | 
MAWMLLLILIMVHPGSCALWVSQPPEIRTLEGSSAFLPCSFNASQGRLAIGSVTWFRDEVVPGKEVRNGTPEFRGRLAPLASSRFLHDHQAELHIRDVRGHDASIYVCRVEVLGLGVGTGNGTRLVVEKEHPQLGAGTVLLLRAGFYAVSFLSVAVGSTVYYQGKCLTWKGPRRQLPAVVPAPLPPPCGSSAHLLPPVPGG | 22.75 ± 0.21% | 23.2 ± 1.3% | 4.49 ± 0.81% | 4.92 ± 0.2% | 
MAWPLCTLLLLLATQAVALAWSPQEEDRIIEGGIYDADLNDERVQRALHFVISEYNKATEDEYYRRLLRVLRAREQIVGGVNYFFDIEVGRTICTKSQPNLDTCAFHEQPELQKKQLCSFQIYEVPWEDRMSLVNSRCQEA | 25.7 ± 2.2% | 24 ± 0.52% | 4.46 ± 0.44% | 5.26 ± 0.68% | 
MAWSLGSWLGGCLLVSALGMVPPPENVRMNSVNFKNILQWESPAFAKGNLTFTAQYLSYRIFQDKCMNTTLTECDFSSLSKYGDHTLRVRAEFADEHSDWVNITFCPVDDTIIGPPGMQVEVLADSLHMRFLAPKIENEYETWTMKNVYNSWTYNVQYWKNGTDEKFQITPQYDFEVLRNLEPWTTYCVQVRGFLPDRNKAGEWSEPVCEQTTHDETVPSWMVAVILMASVFMVCLALLGCFALLWCVYKKTKYAFSPRNSLPQHLKEFLGHPHHNTLLFFSFPLSDENDVFDKLSVIAEDSESGKQNPGDSCSLGTPPGQGPQS |  |  |  |  | percentage of EdU-negative (MCF7; protein concentration 0.034 µM): 24.3 ± 0.92%; percentage of EdU-negative (MCF7; protein concentration 0.34 µM): 26.5 ± 1.1%; percentage of EdU-negative (hTERT-HMEC; protein concentration 0.034 µM): 5.95 ± 2.1%; percentage of EdU-negative (hTERT-HMEC; protein concentration 0.34 µM): 7.32 ± 0.51%
MCGPDDRCPARWPGPGRAVKCGKGLAAARPGRVERGGAQRGGAGLELHPLLGGRTWRAARDADGCEALGTVAVPFDDDDKIVGGYTCEENSLPYQVSLNSGSHFCGGSLISEQWVVSAAHCYKTRIQVRLGEHNIKVLEGNEQFINAAKIIRHPKYNRDTLDNDIMLIKLSSPAVINARVSTISLPTTPPAAGTECLISGWGNTLSFGADYPDELKCLDAPVLTQAECKASYPGKITNSMFCVGFLEGGKDSCQRDSGGPVVCNGQLQGVVSWGHGCAWKNRPGVYTKVYNYVDWIKDTIAANS | 25.3 ± 0.83% | 26.6 ± 3.7% | 5.21 ± 0.094% | 7.39 ± 0.7% | 
MCGSALAFFTAAFVCLQNDRRGPASFLWAAWVFSLVLGLGQGEDNRCASSNAASCARCLALGPECGWCVQEDFISGGSRSERCDIVSNLISKGCSVDSIEYPSVHVIIPTENEINTQVTPGEVSIQLRPGAEANFMLKVHPLKKYPVDLYYLVDVSASMHNNIEKLNSVGNDLSRKMAFFSRDFRLGFGSYVDKTVSPYISIHPERIHNQCSDYNLDCMPPHGYIHVLSLTENITEFEKAVHRQKISGNIDTPEGGFDAMLQAAVCESHIGWRKEAKRLLLVMTDQTSHLALDSKLAGIVVPNDGNCHLKNNVYVKSTTMEHPSLGQLSEKLIDNNINVIFAVQGKQFHWYKDLLPLLPGTIAGEIESKAANLNNLVVEAYQKLISEVKVQVENQVQGIYFNITAICPDGSRKPGMEGCRNVTSNDEVLFNVTVTMKKCDVTGGKNYAIIKPIGFNETAKIHIHRNCSCQCEDNRGPKGKCVDETFLDSKCFQCDENKCHFDEDQFSSESCKSHKDQPVCSGRGVCVCGKCSCHKIKLGKVYGKYCEKDDFSCPYHHGNLCAGHGECEAGRCQCFSGWEGDRCQCPSAAAQHCVNSKGQVCSGRGTCVCGRCECTDPRSIGRFCEHCPTCYTACKENWNCMQCLHPHNLSQAILDQCKTSCALMEQQHYVDQTSECFSSPSYLRIFFIIFIVTFLIGLLKVLIIRQVILQWNSNKIKSSSDYRVSASKKDKLILQSVCTRAVTYRREKPEEIKMDISKLNAHETFRCNF |  |  |  |  | percentage of EdU-negative (MCF7; [3]): 28.2 ± 3%; percentage of EdU-negative (MCF7; protein concentration 0.075 µM): 28.3 ± 2.1%; percentage of EdU-negative (hTERT-HMEC; [3]): 4.94 ± 0.66%; percentage of EdU-negative (hTERT-HMEC; protein concentration 0.075 µM): 6.65 ± 1.7%
MCHQQLVISWFSLVFLASPLVAIWELKKDVYVVELDWYPDAPGEMVVLTCDTPEEDGITWTLDQSSEVLGSGKTLTIQVKEFGDAGQYTCHKGGEVLSHSLLLLHKKEDGIWSTDILKDQKEPKNKTFLRCEAKNYSGRFTCWWLTTISTDLTFSVKSSRGSSDPQGVTCGAATLSAERVRGDNKEYEYSVECQEDSACPAAEESLPIEVMVDAVHKLKYENYTSSFFIRDIIKPDPPKNLQLKPLKNSRQVEVSWEYPDTWSTPHSYFSLTFCVQVQGKSKREKKDRVFTDKTSATVICRKNASISVRAQDRYYSSSWSEWASVPCS |  |  |  |  | percentage of EdU-negative (MCF7; [4]): 27.4 ± 2.1%; percentage of EdU-negative (MCF7; [5]): 27.5 ± 0.78%; percentage of EdU-negative (hTERT-HMEC; [4]): 5.23 ± 1.3%; percentage of EdU-negative (hTERT-HMEC; [5]): 7.74 ± 1.1%
MCLSHLENMPLSHSRTQGAQRSSWKLWLFCSIVMLLFLCSFSWLIFIFLQLETAKEPCMAKFGPLPSKWQMASSEPPCVNKVSDWKLEILQNGLYLIYGQVAPNANYNDVAPFEVRLYKNKDMIQTLTNKSKIQNVGGTYELHVGDTIDLIFNSEHQVLKNNTYWGIILLANPQFIS [Q9UNG2] |  |  |  |  | percentage of EdU-negative (MCF7; [6]): 24.5 ± 2.7%; percentage of EdU-negative (MCF7; [7]): 27 ± 1.1%; percentage of EdU-negative (hTERT-HMEC; [6]): 5.8 ± 0.82%; percentage of EdU-negative (hTERT-HMEC; [7]): 7.64 ± 0.14%
MCRIAGALRTLLPLLAALLQASVEASGEIALCKTGFPEDVYSAVLSKDVHEGQPLLNVKFSNCNGKRKVQYESSEPADFKVDEDGMVYAVRSFPLSSEHAKFLIYAQDKETQEKWQVAVKLSLKPTLTEESVKESAEVEEIVFPRQFSKHSGHLQRQKRDWVIPPINLPENSRGPFPQELVRIRSDRDKNLSLRYSVTGPGADQPPTGIFIINPISGQLSVTKPLDREQIARFHLRAHAVDINGNQVENPIDIVINVIDMNDNRPEFLHQVWNGTVPEGSKPGTYVMTVTAIDADDPNALNGMLRYRIVSQAPSTPSPNMFTINNETGDIITVAAGLDREKVQQYTLIIQATDMEGNPTYGLSNTATAVITVTDVNDNPPEFTAMTFYGEVPENRVDIIVANLTVTDKDQPHTPAWNAVYRISGGDPTGRFAIQTDPNSNDGLVTVVKPIDFETNRMFVLTVAAENQVPLAKGIQHPPQSTATVSVTVIDVNENPYFAPNPKIIRQEEGLHAGTMLTTFTAQDPDRYMQQNIRYTKLSDPANWLKIDPVNGQITTIAVLDRESPNVKNNIYNATFLASDNGIPPMSGTGTLQIYLLDINDNAPQVLPQEAETCETPDPNSINITALDYDIDPNAGPFAFDLPLSPVTIKRNWTITRLNGDFAQLNLKIKFLEAGIYEVPIIITDSGNPPKSNISILRVKVCQCDSNGDCTDVDRIVGAGLGTGAIIAILLCIIILLILVLMFVVWMKRRDKERQAKQLLIDPEDDVRDNILKYDEEGGGEEDQDYDLSQLQQPDTVEPDAIKPVGIRRMDERPIHAEPQYPVRSAAPHPGDIGDFINEGLKAADNDPTAPPYDSLLVFDYEGSGSTAGSLSSLNSSSSGGEQDYDYLNDWGPRFKKLADMYGGGDD |  |  |  |  | percentage of EdU-negative (MCF7; [8]): 27 ± 2.4%; percentage of EdU-negative (MCF7; [9]): 28 ± 1.6%; percentage of EdU-negative (hTERT-HMEC; [8]): 4.75 ± 0.064%; percentage of EdU-negative (hTERT-HMEC; [9]): 9.56 ± 1.9%
MCSRGWDSCLALELLLLPLSLLVTSIQGHLVHMTVVSGSNVTLNISESLPENYKQLTWFYTFDQKIVEWDSRKSKYFESKFKGRVRLDPQSGALYISKVQKEDNSTYIMRVLKKTGNEQEWKIKLQVLDPVPKPVIKIEKIEDMDDNCYLKLSCVIPGESVNYTWYGDKRPFPKELQNSVLETTLMPHNYSRCYTCQVSNSVSSKNGTVCLSPPCTLARSFGVEWIASWLVVTVPTILGLLLT | 25.8 ± 1.1% | 27.8 ± 2% | 4.77 ± 0.31% | 10.71 ± 0.089% | 
MCSTMSAPTCLAHLPPCFLLLALVLVPSDASGQSSRNDWQVLQPEGPMLVAEGETLLLRCMVVGSCTDGMIKWVKVSTQDQQEIYNFKRGSFPGVMPMIQRTSEPLNCDYSIYIHNVTREHTGTYHCVRFDGLSEHSEMKSDEGTSVLVKGAGDPEPDLWIIQPQELVLGTTGDTVFLNCTVLGDGPPGPIRWFQGAGLSREAIYNFGGISHPKETAVQASNNDFSILLQNVSSEDAGTYYCVKFQRKPNRQYLSGQGTSLKVKAKSTSSKEAEFTSEPATEMSPTGLLVVFAPVVLGLKAITLAALLLALATSRRSPGQEDVKTTGPAGAMNTLAWSKGQE [Q5JXA9] | 28 ± 1.8% | 26.5 ± 3.1% | 5.12 ± 0.92% | 5.14 ± 0.34% | 

Reference: the supplement of paper PMC11316812
